Laboratory results from the supplement of paper PMC9233669.
Variants at the floor of the assay were thinned out.

Tests used:
[1] = system: biotinyl-Trp-oxazolone; test: self-aminoacylation, catalytic enhancement (BWO) (fold over background); higher = more active; k-Seq, kA / k0A0; sequences stand for … in GGGAAUGGAUCCACAUCUACGAAUUC…UUCACUGCAGACUUGACGAAGCUG
Procedure, shortened: (§1)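 Each biotinyl-aminoacyl-oxazolone, at 2–1250 μM, was incubated with mutagenized RNA pools (0.43 μM) carrying a 21-nt variable region. The 50 μL reactions contained HEPES/NaCl/KCl/MgCl2/CaCl2 buffer with 5% acetonitrile at pH 6.9–7.0 and ran for 90 minutes at room temperature. After streptavidin capture, RNA was measured by qPCR in triplicate and by Illumina sequencing, and catalytic enhancement was calculated as median kA over the uncatalyzed rate from a pseudo-first-order fit of per-sequence fraction reacted.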

[2] = system: biotinyl-Ile-oxazolone; test: self-aminoacylation, catalytic enhancement (BIO) (fold over background); higher = more active; k-Seq, kA / k0A0; sequences stand for … in GGGAAUGGAUCCACAUCUACGAAUUC…UUCACUGCAGACUUGACGAAGCUG
Procedure, shortened: as §1

[3] = system: biotinyl-Phe-oxazolone; test: self-aminoacylation, catalytic enhancement (BFO) (fold over background); higher = more active; k-Seq, kA / k0A0; sequences stand for … in GGGAAUGGAUCCACAUCUACGAAUUC…UUCACUGCAGACUUGACGAAGCUG
Procedure, shortened: as §1

[4] = system: biotinyl-Met-oxazolone; test: self-aminoacylation, catalytic enhancement (BMO) (fold over background); higher = more active; k-Seq, kA / k0A0; sequences stand for … in GGGAAUGGAUCCACAUCUACGAAUUC…UUCACUGCAGACUUGACGAAGCUG
Procedure, shortened: as §1

[5] = system: biotinyl-Val-oxazolone; test: self-aminoacylation, catalytic enhancement (BVO) (fold over background); higher = more active; k-Seq, kA / k0A0; sequences stand for … in GGGAAUGGAUCCACAUCUACGAAUUC…UUCACUGCAGACUUGACGAAGCUG
Procedure, shortened: as §1

[6] = system: biotinyl-Leu-oxazolone; test: self-aminoacylation, catalytic enhancement (BLO) (fold over background); higher = more active; k-Seq, kA / k0A0; sequences stand for … in GGGAAUGGAUCCACAUCUACGAAUUC…UUCACUGCAGACUUGACGAAGCUG
Procedure, shortened: as §1

Row | Sequence | self-aminoacylation [1] | self-aminoacylation [2] | self-aminoacylation [3] | self-aminoacylation [4] | self-aminoacylation [5] | self-aminoacylation [6]
1 | AUUAGCCGGGUCAUCGAGUGA [Fam2.1 aminoacylation ribozyme variant] | 7.69 | 3.91 | 40.5 | 6.22 | 4.51 | 6.37
2 | AUUACCCUGGUCAUCGAUUAA [Fam2.1 aminoacylation ribozyme variant] | 0.619 | 1.02 | 0.508 | 0.935 | 1.1 | 0.933
3 | AUUACCCUGGUCUUCGAGUGU [Fam2.1 aminoacylation ribozyme variant] | 2.23 | 1.52 | 1.76 | 1.96 | 1.57 | 2.03
4 | AUUCUCCUAGGUCAGCGGGUG [Fam2.2 aminoacylation ribozyme variant] | 8.04 | 4.22 | 43.1 | 6.21 | 3.99 | 8.81
5 | ACACAAUUCAAGCAAUCGGUC [Fam1B.1 aminoacylation ribozyme variant] | 1.67 | 1.44 | 1.95 | 1.21 | 1.18 | 1.21
6 | CUACUUCAAACAAUCGGUUUG [Fam1A.1 aminoacylation ribozyme variant] | 23.9 | 1.07 | 43.4 | 1.08 | 1.1 | 1.54
7 | AUUCUCCGAGGUCAUCGGGUG [Fam2.2 aminoacylation ribozyme variant] | 14.7 | 9.69 | 141 | 16.7 | 10.6 | 22
8 | AAGGUUGCUAAUAGUCGCAAG [Fam3.1 aminoacylation ribozyme variant] | 2.64 | 1.32 | 6.56 | 1.29 | 1.23 | 1.25
9 | CAACUCUUCAAGCAAUCGGUC [Fam1B.1 aminoacylation ribozyme variant] | 6.16 | 1.05 | 9.86 | 1.16 | 1.04 | 1.33
10 | CUACUUCCAACAAUCUGUCUG [Fam1A.1 aminoacylation ribozyme variant] | 0.438 | 0.776 | 0.746 | 0.488 | 0.757 | 0.59
11 | GAAUUUGCUAAUAGUCGCAAG [Fam3.1 aminoacylation ribozyme variant] | 1.79 | 1.81 | 2.52 | 1.51 | 1.53 | 1.38
12 | GUACUUCAAACAAUCGGUUUG [Fam1A.1 aminoacylation ribozyme variant] | 27.8 | 1.85 | 40.2 | 1.66 | 1.59 | 1.89
13 | CCACAGCUCAAGCAAUCGGUC [Fam1B.1 aminoacylation ribozyme variant] | 2.35 | 1.18 | 3.21 | 1.05 | 1.29 | 1.16
14 | CCGCACUUCAAGCAAUCGGGC [Fam1B.1 aminoacylation ribozyme variant] | 2.11 | 1.92 | 2.26 | 1.35 | 2.52 | 1.69
15 | UUUACCCUGGUCAUCGAGUGC [Fam2.1 aminoacylation ribozyme variant] | 5.5 | 2.52 | 16.5 | 6.81 | 2.99 | 6.26
16 | AUUCACCUAGCUCAUCUGGUG [Fam2.2 aminoacylation ribozyme variant] | 0.967 | 1.17 | 5.43 | 1.3 | 1.05 | 1.52
17 | AAGUGCGCUAAUAGUCGCAAG [Fam3.1 aminoacylation ribozyme variant] | 4.08 | 1.84 | 3.73 | 1.19 | 1.8 | 1.38
18 | AUUCACCCAGGUCAUCGGGAG [Fam2.2 aminoacylation ribozyme variant] | 1.47 | 1.22 | 0.732 | 1.28 | 1.48 | 1.28
19 | CCACACCUAAAGCAAUCGGUC [Fam1B.1 aminoacylation ribozyme variant] | 1.01 | 1 | 1.09 | 0.876 | 1.31 | 1.02
20 | AUUACUCUGGUCAUCGAGUCA [Fam2.1 aminoacylation ribozyme variant] | 0.628 | 1.09 | 1.04 | 0.944 | 0.978 | 0.928
21 | AUUCACCGAGGUCAUCGGCUG [Fam2.2 aminoacylation ribozyme variant] | 1.93 | 2.29 | 12.4 | 2.26 | 2.26 | 2.38
22 | CUGCUUCAAACAAUCGGACUG [Fam1A.1 aminoacylation ribozyme variant] | 28.3 | 1.13 | 49.5 | 1.26 | 1.21 | 1.79
23 | CCCCACUUCCAGCAAUCGGUC [Fam1B.1 aminoacylation ribozyme variant] | 2.16 | 2.18 | 1.79 | 1.78 | 2.48 | 2.35
24 | AUUACCCUGAUCAUCAAGUGA [Fam2.1 aminoacylation ribozyme variant] | 3.1 | 1.57 | 3.86 | 2.3 | 1.77 | 2.77
25 | AUUGCCCUGCUCAUCGAGUGA [Fam2.1 aminoacylation ribozyme variant] | 1.04 | 1.22 | 5.55 | 1.86 | 1.61 | 1.91
26 | AUUCACCUAAGUGAUCGGGUG [Fam2.2 aminoacylation ribozyme variant] | 2 | 1.65 | 9.9 | 2.25 | 1.77 | 2.94

Row | Sequence | self-aminoacylation [1] | self-aminoacylation [2] | self-aminoacylation [3] | self-aminoacylation [4] | self-aminoacylation [5] | self-aminoacylation [6]
27 | AUAACCCUGGUCAUCAAGUGA [Fam2.1 aminoacylation ribozyme variant] | 2.39 | 1.45 | 2.73 | 2.3 | 1.27 | 2.24
28 | CUACUUCAAACAAUCCGUCUG [Fam1A.1 aminoacylation ribozyme variant] | 1.26 | 0.788 | 1.92 | 0.673 | 0.806 | 0.661
29 | AAGUUUGCUAAUUUUCGCAAG [Fam3.1 aminoacylation ribozyme variant] | 1.85 | 1.07 | 0.884 | 1.06 | 1.1 | 1.23
30 | CCACAUUUCAAUCAAUCGGUC [Fam1B.1 aminoacylation ribozyme variant] | 6.51 | 1.14 | 12.7 | 1.09 | 1.14 | 1.07
31 | CAACACUUCCAGCAAUCGGUC [Fam1B.1 aminoacylation ribozyme variant] | 1.01 | 1.41 | 0.986 | 1.1 | 1.26 | 1.1
32 | AUUACCCUGGUUAUGGAGUGA [Fam2.1 aminoacylation ribozyme variant] | 8.01 | 3.95 | 47.4 | 7.77 | 3.93 | 7.9
33 | AUUGACCUUGGUCAUCGGGUG [Fam2.2 aminoacylation ribozyme variant] | 5.82 | 3.38 | 32.8 | 5.19 | 3.36 | 5.49
34 | AUUCACCUAGUUCAUCGGUUG [Fam2.2 aminoacylation ribozyme variant] | 0.661 | 1.09 | 0.483 | 0.932 | 1.09 | 1.11
35 | AUUACCCUGUUCAUCGAAUGA [Fam2.1 aminoacylation ribozyme variant] | 0.767 | 0.982 | 1.18 | 1.16 | 1.13 | 0.871
36 | AUUCACCGAGGUCCUCGGGUG [Fam2.2 aminoacylation ribozyme variant] | 9.2 | 6.76 | 84.6 | 11.3 | 6.63 | 14.6
37 | CUACCUCAAACAAUCGGUCCG [Fam1A.1 aminoacylation ribozyme variant] | 1.2 | 1.04 | 1.05 | 1.15 | 1.18 | 1.9
38 | AUUCACGUUGGUCAUCGGGUG [Fam2.2 aminoacylation ribozyme variant] | 10.1 | 6.91 | 121 | 12.5 | 8 | 12.2
39 | CCACACUUCAAGCAAUGGGUC [Fam1B.1 aminoacylation ribozyme variant] | 0.627 | 0.78 | 0.841 | 0.677 | 0.793 | 0.677
40 | AAGUUUGAUAAUAGGCGCAAG [Fam3.1 aminoacylation ribozyme variant] | 0.74 | 0.704 | 0.836 | 0.523 | 0.551 | 0.59
41 | GCACGCUUCAAGCAAUCGGUC [Fam1B.1 aminoacylation ribozyme variant] | 60.1 | 2.55 | 120 | 2.62 | 2.74 | 3.62
42 | AUUCACCUAGGAGAUCGGGUG [Fam2.2 aminoacylation ribozyme variant] | 5.46 | 3.82 | 34.3 | 4.82 | 3.54 | 7.83
43 | AUUCACUUAGGUCAUCCGGUG [Fam2.2 aminoacylation ribozyme variant] | 6.84 | 4.64 | 43.4 | 6.26 | 4.72 | 8.78
44 | AGUCACCUAGGUCAACGGGUG [Fam2.2 aminoacylation ribozyme variant] | 3.02 | 2.57 | 9.17 | 2.25 | 2.08 | 3.22
45 | CCACACUUAAAGUAAUCGGUC [Fam1B.1 aminoacylation ribozyme variant] | 0.875 | 0.82 | 0.772 | 0.695 | 0.836 | 0.744
46 | AUCCACCUACGUCAUCGGGUG [Fam2.2 aminoacylation ribozyme variant] | 4.86 | 4.29 | 41.3 | 6.46 | 3.75 | 6.58
47 | CUACUUCAAACAACCGGUCUC [Fam1A.1 aminoacylation ribozyme variant] | 0.734 | 0.933 | 0.745 | 0.724 | 0.728 | 0.619
48 | AUUACCCUGGUCAUCGACAGA [Fam2.1 aminoacylation ribozyme variant] | 0.676 | 1.04 | 0.705 | 0.716 | 0.774 | 0.738
49 | AUUACCCUGGUCAUCCUGUGA [Fam2.1 aminoacylation ribozyme variant] | 1.52 | 1.51 | 2.81 | 1.39 | 1.07 | 1.71
50 | AUUCGCCUAGGUCAUCGGGUC [Fam2.2 aminoacylation ribozyme variant] | 1.76 | 1.58 | 6.94 | 1.62 | 1.91 | 1.88
51 | AUUCACGUCGGUCAUCGGGUG [Fam2.2 aminoacylation ribozyme variant] | 6.46 | 3.75 | 54.3 | 5.7 | 5.95 | 5.21
